Data taken from paper PMC9973356, “Cryo-EM Structures of AcrD Illuminate a Mechanism for Capturing Aminoglycosides from Its Central Cavity” (mBio, 2023).
Where “and” joins values, the source holds several entries; their conditions need not be identical. Equal entries are not always repeated.

Target: the molecule itself
Experiment: cryo-EM structure; single-particle cryo-EM of 10 µM AcrD in MSP1E3D1 nanodiscs (E. coli total extract lipid; 20 mM Tris-HCl pH 7.5, 100 mM NaCl), no gentamicin; particle ratio of trimer to dimer to monomer approximately 3:5:2

B1: Escherichia coli acriflavine resistance protein D (AcrD) (natural protein)
chain: MANFFIDRPIFAWVLAILLCLTGTLAIFSLPVEQYPDLAPPNVRVTANYPGASAQTLENTVTQVIEQNMTGLDNLMYMSSQSSGTGQASVTLSFKAGTDPDEAVQQVQNQLQSAMRKLPQAVQNQGVTVRKTGDTNILTIAFVSTDGSMDKQDIADYVASNIQDPLSRVNGVGDIDAYGSQYSMRIWLDPAKLNSFQMTAKDVTDAIESQNAQIAVGQLGGTPSVDKQALNATINAQSLLQTPEQFRDITLRVNQDGSEVRLGDVATVEMGAEKYDYLSRFNGKPASGLGVKLASGANEMATAELVLNRLDELAQYFPHGLEYKVAYETTSFVKASIEDVVKTLLEAIALVFLVMYLFLQNFRATLIPTIAVPVVLMGTFSVLYAFGYSVNTLTMFAMVLAIGLLVDDAIVVVENVERIMSEEGLTPREATRKSMGQIQGALVGIAMVLSAVFVPMAFFGGTTGAIYRQFSITIVAAMVLSVLVAMILTPALCATLLKPLKKGEHHGQKGFFAWFNQMFNRNAERYEKGVAKILHRSLRWIVIYVLLLGGMVFLFLRLPTSFLPLEDRGMFTTSVQLPSGSTQQQTLKVVEQIEKYYFTHEKDNIMSVFATVGSGPGGNGQNVARMFIRLKDWSERDSKTGTSFAIIERATKAFNQIKEARVIASSPPAISGLGSSAGFDMELQDHAGAGHDALMAARNQLLALAAENPELTRVRHNGLDDSPQLQIDIDQRKAQALGVAIDDINDTLQTAWGSSYVNDFMDRGRVKKVYVQAAAPYRMLPDDINLWYVRNKDGGMVPFSAFATSRWETGSPRLERYNGYSAVEIVGEAAPGVSTGTAMDIMESLVKQLPNGFGLEWTAMSYQERLSGAQAPALYAISLLVVFLCLAALYESWSVPFSVMLVVPLGVIGALLATWMRGLENDVYFQVGLLTVIGLSAKNAILIVEFANEMNQKGHDLFEATLHACRQRLRPILMTSLAFIFGVLPMATSTGAGSGGQHAVGTGVMGGMISATILAIYFVPLFFVLVRRRFPLKPRPE
notes: AcrD, E. coli, full length; Seen as trimers, dimers and monomers in the same nanodisc sample; The nanodisc scaffold protein MSP1E3D1 (Sigma-Aldrich) is only a tool; also called AcrD aminoglycoside efflux pump; apo-AcrD
stoichiometry N: 3 and 2
